For this assay, the target named is SARS-CoV-2 spike protein receptor binding domain (SARS-CoV-2, UniProt P0DTC2). Briefly: cryo-EM structure.

This is an account of results in doi:10.1101/2021.03.10.434834 (bioRxiv, 2021).

B1: REGN10985 Fab (Fab, V domains shown)
VH: EVQLVESGGGLVQPGRSLRLSCAASGFTFDDYAMHWVRQAPGKGLEWVSGISWNRGSIGYADSVKGRFTISRDNAKNSLYLQMSSLRAEDTALYYCAKDGERWDSVVVPSARNGMDVWGQGTTVTVSS
VL: QSVLTQPPSVSGAPGQRVTISCTGSSSNIGAGYDVHWYQQLPGTAPKLLIYGNSNRPSGVPDRFSGSKSGTSASLAITGLQAEDEADYYCQSYDSSLSGSYVFGTGTKVTVL
With B1, the binding result is “binds”.

B2: REGN10989 Fab (Fab, V domains shown)
VH: QVQLVQSGAEVKKPGASVKVSCKASGYIFTGYYMHWVRQAPGQGLEWMGWINPNSGGANYAQKFQGRVTLTRDTSITTVYMELSRLRFDDTAVYYCARGSRYDWNQNNWFDPWGQGTLVTVSS
VL: QSALTQPASVSGSPGQSITISCTGTSSDVGTYNYVSWYQQHPGKAPKLMIFDVSNRPSGVSDRFSGSKSGNTASLTISGLQAEDEADYYCSSFTTSSTVVFGGGTKLTVL
For B2, the binding result is reported as “binds”.
